The text below walks through data of the RNAGym collection of RNA variant scans (doi:10.1101/gr.219683.116).

To fix the notation:
B1: mRNA-splicing (parent)
chain: AGUUGCUGCUGGGAGCUCCAGCACAGUGAAAUGGACAGAAGGGCAGAGCAA

The data set covers variants of B1. Description: exon inclusion enrichment index; higher = more inclusion; WT1 exon 5 minigene, HEK293.
For the variant G5A C6U U7A G8U C9A A40U G41C, the “exon inclusion enrichment index” value amounted to 0.359.

For G5A C6U U7A G8U C9A A40U G41U, the “exon inclusion enrichment index” value stood at 0.0246. Under G2U G5A C6G U7G C9A stands 0.0266. Under C6A U7A C9A U10A U17G C18U stands 0.46.

Consider G5U G8U C9U G28C A29C, for which the “exon inclusion enrichment index” value is 0.115. Under G5C C6A U7C G8A U10A G38C A39U stands 0.00505; under C6A U7C C9A U10C A47U G48U, 2.6. Take G5U G8U C9U C18G: the “exon inclusion enrichment index” value turned out to be 0.139. Under G5A C6G U7G C9A U17C C18G stands 0.00304. Under G2A U3A G5A C6U U7A G8U C9A stands 0.0687; under G5C C6A U7C G8U C9G U10A, 0.381. Next, G5C C6U G8C C9U U10C G43C C44U: 1.6; C16U U17C: 0.038. Consider G5C C6U G8C C9U U10C G15C, for which the “exon inclusion enrichment index” value worked out at 2.54. Next, U4G G5C G8U C9U: 0.642; C6A U7C C9A U10C C16A U17C: 3.21. Next, U3C U4A G5A C6U U7A G8U C9A: 0.17.

C6A U7C C9G U10A: the “exon inclusion enrichment index” value was 1.39.

For G2A U3G C6A U7A C9A U10A, the “exon inclusion enrichment index” value is 0.935. Under G2U U3G C6A U7A C9A U10A stands 2.07. Next, G5A C6U U7A G8U C9A G12A G13C: 0.0112; G5U G8U C9U A40G: 0.0867; G5U G8U C9U A40U: 0.0931. Regarding U3C G5C C6G U7C U10C, the “exon inclusion enrichment index” value was found to be 1.22. Under U7C C9A U10A stands 1.64. On to G5A C6G U7G C9A C36U A37C, for which the “exon inclusion enrichment index” value was found to be 0.000996. As to C6A U7A C9A U10A C19G A20U, the “exon inclusion enrichment index” value amounted to 0.62. As to G5U G8U C9U G41A G42A, the “exon inclusion enrichment index” value was determined as 0.107.

Regarding G5A U7C G8A U10C G41A, the “exon inclusion enrichment index” value came out at 1.44.

For G5C C6A U7C G8A U10C G11U, the “exon inclusion enrichment index” value came out at 1.71. Under G5C C6U U7C U10C stands 3.59. Under G5A U7C G8A U10C A45U G46U stands 0.84; under G13A A14C, 0.227; under G5C C6G U7C U10C A37G G38A, 2.92. G5C C6U G8C C9U U10C A20C G21C: the “exon inclusion enrichment index” value worked out at 0.524.

In the case of A30G A31U, the “exon inclusion enrichment index” value worked out at 0.0224. Under G8C stands 1.33; under G8A, 1.09.

Consider G5A U7C G8A U10C G15C, for which the “exon inclusion enrichment index” value was determined as 2.72. As for G5A C6U U7A G8U C9A C44A A45U, the “exon inclusion enrichment index” value amounted to 0.189. For G5A C6G U7G C9A A14U G15C, the “exon inclusion enrichment index” value was found to be 0.00121. Next, G5C C6U G8C U10C: 2.2; G5C C6A U7C G8A U10A A35G C36U: 0.00147. Next, G28U A29G: 0.0875; G5U G8U C9U A14U: 0.0126. With G5U G8U C9U A14G, the “exon inclusion enrichment index” value was determined as 0.0707.

On to G5C C6G U7C U10C A14U G15C, for which the “exon inclusion enrichment index” value is 1.8. With C6A U7A C9A U10A G13U, the “exon inclusion enrichment index” value is 0.142. Regarding G5A U7A G8C U10C, the “exon inclusion enrichment index” value was 1.42. Next, G5C C6A U7C G8A U10A G26C U27G: 0.537.

Take G5C U7C U10C: the “exon inclusion enrichment index” value turned out to be 0.696. Under G5A C6U U7A G8U C9A A39G A40G stands 0.00821; under G5U G8U C9U G15A C16A, 0.0496. Next, G5C C6A U7C G8A U10A A25G G26C: 0.647; C6A U7A C9A U10A G28C A29G: 1.45. Under G5C C6G U7C U10C G46A A47U stands 3.68; under G5U G8U C9U G28C, 0.0778.

In the case of G38A A39U, the “exon inclusion enrichment index” value is 0.00515. Next, G5C C6G U7C U10C A29U A30C: 3.05; G5C C6G U7C U10C A29U A30U: 1.81.

Regarding G5A C6G U7G C9A G33A G34A, the “exon inclusion enrichment index” value was 0.000844.

As for G5A C6G U7G C9A G28U A29U, the “exon inclusion enrichment index” value was determined as 0.000755.

As to C6A U7A C9A U10A U32A G33U, the “exon inclusion enrichment index” value amounted to 0.298.

For the variant G5U G8U C9U G33C, the “exon inclusion enrichment index” value worked out at 0.254. Next, C6A U7A C9A U10A A31C U32C: 1.71; C36G A37U: 0.0724; G5A C6G U7G C9A C24A A25U: 0.00166. Under G5A C6G U7G C9A C19A stands 0.00105; under C6A U7C C9A U10C C16G, 2.49; under G5A C6U U7A G8U C9A U27G G28A, 0.12. Under C6A U7A C9A U10A G11A stands 1.96; under G5C C6U G8C C9U U10C G26C U27G, 3.22; under G5A U7C G8A U10C A40U G41A, 0.108. On to G5A U7C G8A U10C G34A, for which the “exon inclusion enrichment index” value turned out to be 1.51. Next, G5C C6U G8C C9U U10C C24U A25C: 3.44.

For the variant G5A U7C G8A U10C C36A, the “exon inclusion enrichment index” value is 1.85. Next, G5C C6G U7C U10C G48C: 3.91; G5C C6G U7C U10C G48U: 4.46; G5C C6G U7C U10C G46C A47U: 2.37.

With C6A U7C C9A U10C A25G G26U, the “exon inclusion enrichment index” value is 4.03. Under C6A U7A C9A U10A G28A A29U stands 0.156; under G5U G8U U10C, 1.8. Next, G5A C6G U7G C9A C22G A23U: 0.000928.
